Common to all, as to assay: fluorescence polarization
The target of data set [1] is T1, SRSF1 RRM1+2 (UniProt Q07955 1-195).
Data set [2] has as its target T2, MBP-hnRNP A2/B1 (1-251) (UniProt P22626 1-251).
The target of data set [3] is T2, MBP-hnRNP A2/B1 (1-251). The source holds these as a separate data set.
Data set [4] concerns the target T1, SRSF1 RRM1+2. This is another data set of the same source.
Data set [5] addresses T2, MBP-hnRNP A2/B1 (1-251). This is another data set of the same source.

Like-named read-outs stand apart in the source and are kept apart here.

T2 sequence (P22626 1-251): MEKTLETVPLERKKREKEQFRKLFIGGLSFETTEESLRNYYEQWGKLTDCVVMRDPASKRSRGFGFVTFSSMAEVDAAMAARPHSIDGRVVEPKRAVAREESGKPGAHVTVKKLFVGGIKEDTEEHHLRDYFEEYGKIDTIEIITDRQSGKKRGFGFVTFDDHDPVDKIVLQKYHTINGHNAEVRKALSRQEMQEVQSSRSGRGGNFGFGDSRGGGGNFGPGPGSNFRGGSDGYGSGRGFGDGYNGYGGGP
T1 sequence (Q07955 1-195): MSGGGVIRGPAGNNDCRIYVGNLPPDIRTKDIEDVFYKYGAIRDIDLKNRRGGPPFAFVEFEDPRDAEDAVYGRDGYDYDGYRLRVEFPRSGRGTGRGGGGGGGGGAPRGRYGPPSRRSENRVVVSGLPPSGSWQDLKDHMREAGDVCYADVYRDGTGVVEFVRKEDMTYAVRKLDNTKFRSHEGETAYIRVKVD

Molecule AGAAGAACAGAAGAACAGAAGAAC (ssRNA) [FAM-S3 (A3 3n)] displayed a dissociation constant Kd in the data set with SRSF1 RRM1+2 [1] of 42.5 ± 33.9 nM.
For the molecule AAGGACUAGCAAGGACUAGCAAGGACUAGC (ssRNA) [FAM-H3 (10 mer 3n)], binding with MBP-hnRNP A2/B1 (1-251) [2] was characterised by a dissociation constant (Kd) of 24 ± 8.1 nM.
Molecule AAGGACUAGC (ssRNA) [FAM-H1 (10 mer 1n)] gave a dissociation constant Kd in the data set with MBP-hnRNP A2/B1 (1-251) [3] of 51.7 ± 9 nM.
The molecule AGAAGAACAGAAGAAC (ssRNA) [FAM-S2 (A3 2n)] returned a Kd in the data set with SRSF1 RRM1+2 [4] of 56.1 ± 17.5 nM.
In the data set with MBP-hnRNP A2/B1 (1-251) [5], AAGGACUAGCAAGGACUAGC (ssRNA) [FAM-H2 (10 mer 2n)] showed a dissociation constant (Kd) of 135 ± 9 nM.

By Kd is commonly meant a measure of binding affinity in units of concentration. Read a low Kd as higher affinity.

The record behind these values is article PMC10038052.
